The values that follow come from patent US20230416394A1 (ELPISCIENCE SUZHOU BIOPHARMA, published 2023).

T1: human CD39 (human, UniProt P49961 1-510)
T1 sequence: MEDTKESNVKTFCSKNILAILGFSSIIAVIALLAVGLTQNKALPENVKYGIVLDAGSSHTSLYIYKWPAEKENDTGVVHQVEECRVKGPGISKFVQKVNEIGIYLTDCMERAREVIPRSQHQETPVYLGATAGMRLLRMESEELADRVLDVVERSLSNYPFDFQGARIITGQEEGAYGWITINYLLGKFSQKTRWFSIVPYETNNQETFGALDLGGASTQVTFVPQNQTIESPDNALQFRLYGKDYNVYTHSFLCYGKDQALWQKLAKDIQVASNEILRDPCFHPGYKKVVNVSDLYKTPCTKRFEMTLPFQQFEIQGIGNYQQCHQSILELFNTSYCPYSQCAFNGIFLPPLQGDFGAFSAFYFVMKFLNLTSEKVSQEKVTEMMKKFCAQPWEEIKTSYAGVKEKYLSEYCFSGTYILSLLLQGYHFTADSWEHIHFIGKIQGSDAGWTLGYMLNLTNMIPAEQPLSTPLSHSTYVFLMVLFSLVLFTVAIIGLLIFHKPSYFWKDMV

T2: mouse CD39 (mouse, UniProt P55772 1-510)
T2 construct: whole, on cells; also called mCD39; CHOK1-mCD39
T2 sequence (looked up): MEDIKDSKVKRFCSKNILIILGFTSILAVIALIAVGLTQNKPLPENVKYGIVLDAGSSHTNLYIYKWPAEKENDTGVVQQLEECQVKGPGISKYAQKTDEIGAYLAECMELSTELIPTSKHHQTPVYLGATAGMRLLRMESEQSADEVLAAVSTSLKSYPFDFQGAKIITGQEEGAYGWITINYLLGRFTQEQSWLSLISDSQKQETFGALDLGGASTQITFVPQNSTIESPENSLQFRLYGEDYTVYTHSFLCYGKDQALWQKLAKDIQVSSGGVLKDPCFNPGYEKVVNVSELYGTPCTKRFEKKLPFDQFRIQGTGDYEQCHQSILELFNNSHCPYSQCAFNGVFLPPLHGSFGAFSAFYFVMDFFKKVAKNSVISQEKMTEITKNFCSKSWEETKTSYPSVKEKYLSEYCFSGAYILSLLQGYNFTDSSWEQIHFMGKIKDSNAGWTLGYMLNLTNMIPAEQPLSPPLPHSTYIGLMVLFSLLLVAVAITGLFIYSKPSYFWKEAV

B1: c23 (antibody, V domains shown)
VH: EVQLQQSGAELLRPGASVKLSCTASGYNLKDTFLHWVKQRPEQGLEWIGRIDPANGNIKYDPKFQGKATLTADTSSNTAYLQLISLTSEDTAVYYCANSPYYYGSGYRIFDVWGAGTTVTVSS
VL: QIVLTQSPAIMSASPGEKVTITCSAFSSVNYMHWYQQKPGTSPKLLIYTTSNLASGVPTRFSGSGSGTSYSLTISRMEAEDAATYYCQQRSTYPFTFGSGTKLEIQ
B2: hu23.201 (antibody, V domains shown)
VH: QVQLVQSGAEVKKPGASVKVSCKASGYTLKDTFLHWVRQAPGQRLEWMGRIDPANGNIKYDPKFQGRVTLTADTSSNTAYMELSSLRSEDTAVYYCANSPYYYGSGYRIFDVWGQGTLVTVSS
VL: EIVLTQSPATLSLSPGERATLSCSAFSSVNYMHWYQQKPGQSPRLLIYTTSNLASGIPARFSGSGSGTDYTLTISSLEPEDFAVYYCQQRSTYPFTFGQGTKLEIK
B3: hu23.H5L6 (antibody, V domains shown)
VH: QVQLVQSGAEVKKPGASVKVSCKASGYNLKDTFLHWVRQAPGQGLEWMGRIDPANGNIKYDPKFQGRVTITADTSANTAYMELISLRSEDTAVYYCANSPYYYGSGYRIFDVWGQGTTVTVSS
VL: QIVLTQSPATLSASPGERATLSCSAFSSVNYMHWYQQKPGQAPKLLIYTTSNLASGVPTRFSGSGSGTSYTLTISSMEPEDFAVYYCQQRSTYPFTFGQGTKLEIK
B4: hu23.H1L4 (antibody, V domains shown)
VH: QVQLVQSGAEVKKPGASVKVSCKASGYNLKDTFLHWVRQAPGQRLEWMGRIDPANGNIKYDPKFQGRVTITRDTSASTAYMELSSLRSEDTAVYYCARSPYYYGSGYRIFDVWGQGTTVTVSS
VL: EIVLTQSPATLSASPGERVTISCSAFSSVNYMHWYQQKPGQAPRLLIYTTSNLASGIPARFSGSGSGTDYTLTISSMEPEDFAVYYCQQRSTYPFTFGQGTKLEIK
B5: hu23.H2L2 (antibody, V domains shown)
VH: QVQLVQSGAEVKKPGASVKVSCKASGYNLKDTFLHWVRQAPGQGLEWMGRIDPANGNIKYDPKFQGRVTITADTSASTAYMELSSLRSEDTAVYYCANSPYYYGSGYRIFDVWGQGTTVTVSS
VL: EIVLTQSPATLSLSPGERATLSCSAFSSVNYMHWYQQKPGQAPRLLIYTTSNLASGIPARFSGSGSGTDYTLTISSLEPEDFAVYYCQQRSTYPFTFGQGTKLEIK
B6: hu23.H1L2 (antibody, V domains shown)
VH: QVQLVQSGAEVKKPGASVKVSCKASGYNLKDTFLHWVRQAPGQRLEWMGRIDPANGNIKYDPKFQGRVTITRDTSASTAYMELSSLRSEDTAVYYCARSPYYYGSGYRIFDVWGQGTTVTVSS
VL: EIVLTQSPATLSLSPGERATLSCSAFSSVNYMHWYQQKPGQAPRLLIYTTSNLASGIPARFSGSGSGTDYTLTISSLEPEDFAVYYCQQRSTYPFTFGQGTKLEIK
B7: hu23.H7L6 (antibody, V domains shown)
VH: EVQLVQSGAEVKKPGASVKLSCKASGYNLKDTFLHWVKQAPGQGLEWIGRIDPANGNIKYDPKFQGKATLTADTSANTAYLELISLRSEDTAVYYCANSPYYYGSGYRIFDVWGQGTTVTVSS
VL: QIVLTQSPATLSASPGERATLSCSAFSSVNYMHWYQQKPGQAPKLLIYTTSNLASGVPTRFSGSGSGTSYTLTISSMEPEDFAVYYCQQRSTYPFTFGQGTKLEIK
B8: hu23.H7L5 (antibody, V domains shown)
VH: EVQLVQSGAEVKKPGASVKLSCKASGYNLKDTFLHWVKQAPGQGLEWIGRIDPANGNIKYDPKFQGKATLTADTSANTAYLELISLRSEDTAVYYCANSPYYYGSGYRIFDVWGQGTTVTVSS
VL: QIVLTQSPATLSLSPGERATLSCSAFSSVNYMHWYQQKPGQAPRLLIYTTSNLASGIPTRFSGSGSGTSYTLTISSLEPEDFAVYYCQQRSTYPFTFGQGTKLEIK
B9: hu23.H7L1 (antibody, V domains shown)
VH: EVQLVQSGAEVKKPGASVKLSCKASGYNLKDTFLHWVKQAPGQGLEWIGRIDPANGNIKYDPKFQGKATLTADTSANTAYLELISLRSEDTAVYYCANSPYYYGSGYRIFDVWGQGTTVTVSS
VL: EIVLTQSPATLSLSPGERATLSCSAFSSVNYMHWYQQKPGQAPRLLIYTTSNLASGIPARFSGSGSGTDFTLTISSLEPEDFAVYYCQQRSTYPFTFGQGTKLEIK
B10: hu23.H4L4 (antibody, V domains shown)
VH: QVQLVQSGAEVKKPGASVKLSCKASGYNLKDTFLHWVKQAPGQGLEWIGRIDPANGNIKYDPKFQGRATLTADTSASTAYLELSSLRSEDTAVYYCANSPYYYGSGYRIFDVWGQGTTVTVSS
VL: EIVLTQSPATLSASPGERVTISCSAFSSVNYMHWYQQKPGQAPRLLIYTTSNLASGIPARFSGSGSGTDYTLTISSMEPEDFAVYYCQQRSTYPFTFGQGTKLEIK
B11: hu23.211 (antibody, V domains shown)
VH: EVQLVQSGAEVKKPGASVKVSCKASGYTLKDTFLHWVRQAPGQRLEWMGRIDPANGNIKYDPKFQGRVTITADTSSNTAYMELSSLRSEDTAVYYCANSPYYYGSGYRIFDVWGQGTLVTVSS
VL: EIVLTQSPATLSLSPGERATLSCSAFSSVNYMHWYQQKPGQAPRLLIYTTSNLASGIPARFSGSGSGTDYTLTISSLEPEDFAVYYCQQRSTYPFTFGQGTKLEIK
B12: hu23.203 (antibody, V domains shown)
VH: QVQLVQSGAEVKKPGASVKVSCKASGYTLKDTFLHWVRQAPGQRLEWMGRIDPANGNIKYDPKFQGRVTLTADTSSNTAYMELSSLRSEDTAVYYCANSPYYYGSGYRIFDVWGQGTLVTVSS
VL: EIVLTQSPATLTLSPGERATLSCSAFSSVNYMHWYQQKPGQAPRLLIYTTSNLASGIPARFSGSGSGTDYTLTISSLEPEDFAVYYCQQRSTYPFTFGQGTKLEIK
B13: mAb23 (antibody, V domains shown)
VH: EVQLQQSGAELLRPGASVKLSCTASGYNLKDTFLHWVKQRPEQGLEWIGRIDPANGNIKYDPKFQGKATLTADTSSNTAYLQLISLTSEDTAVYYCANSPYYYGSGYRIFDVWGAGTTVTVSS
VL: QIVLTQSPAIMSASPGEKVTITCSAFSSVNYMHWYQQKPGTSPKLLIYTTSNLASGVPTRFSGSGSGTSYSLTISRMEAEDAATYYCQQRSTYPFTFGSGTKLEIQ
notes: mouse hybridoma antibody
B14: mAb19 (antibody, V domains shown)
VH: EVKLEKSGGGLVQPGGSMKLSCVASGFTFSNYWMNWVRQSPEKGLEWVAQIRLNPDNYATHYAESVKGRFTISRDDYKNSVYLQMSSLRAEDSGIYYCTQHGSRGFAYWGQGTLVTVS
VL: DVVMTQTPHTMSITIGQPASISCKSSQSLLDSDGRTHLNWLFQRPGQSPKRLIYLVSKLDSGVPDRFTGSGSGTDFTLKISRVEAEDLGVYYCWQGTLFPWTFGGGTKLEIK
notes: mouse hybridoma antibody
B15: mAb13 (antibody, V domains shown)
VH: QIQLVQSGPELKKPGETVKISCKASGYTFTNYGMNWVKQAPGKGLRWMGLINTYTGEPTYADDFKDRFAFSLETSASTAFLQINNLKDEDMATYFCARKGIYYDYVWFFDVWGAGTTVTVSS
VL: DIQMTQSPSSLSTSLGGKVSITCKASQDINRYIAWYQHKPGKGPRLLIHYTSTLLPGIPSRFSGSGSGRDYSFSISNLEPEDIATYFCLQYSNLLTFGGGTKLEIK
notes: mouse hybridoma antibody
B16: mAb21 (antibody, V domains shown)
VH: EVKLEKSGGGLVQPGGSMKLSCVASGFTFSNYWMNWVRQSPEKGLEWVAQIRLNPDNYATHFAESVKGRFTISRDDSKNSVYLQMNSLRAEDTGIYYCTEHGTRGFAYWGQGTLVTVSE
VL: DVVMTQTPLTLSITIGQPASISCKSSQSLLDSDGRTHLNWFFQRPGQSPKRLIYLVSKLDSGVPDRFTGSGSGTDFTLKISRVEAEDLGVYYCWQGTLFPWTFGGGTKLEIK
notes: mouse hybridoma antibody
B17: mAb14 (antibody, V domains shown)
VH: EVKLEESGGGLVQPGGSMKLSCVASGFTFSKYWMNWVRQSPEKGLEWVAEIRLKSNKYGTHYAESVKGRFTISRDDSKNNVYLQMNNLRPEDTGIYYCTTQLDLYWFFDVWGAGTTVTVSS
VL: DIVMTQSPAILSVTPGDRVSLSCRASQSISDYLHWYQQKSHESPRLLIKYASQSISGIPSRFSGSGSGSNFTLSINSVEPEDVGVYFCQNGHSLPLTFGAGTKLELR
notes: mouse hybridoma antibody

“And” between values parts separate entries of the source, which are not always exact repeats. Equal values may be shown once.

One test has as its target T1, human CD39. Description: cell-based or functional assay.
Turning to B1, the “ATPase inhibition on SK-MEL-28 cells, IC50” value (from here on “ATPase inhibition”) is 0.158 nM and 0.209 nM. On to B2, for which the “ATPase inhibition” value was found to be 0.264 nM. On the same count and under the same terms, the value for B3 was 0.13 nM; that for B4 was 0.59 nM; that for B5 was 0.767 nM. In the case of B6, the “ATPase inhibition” value turned out to be 0.964 nM. Consider B7, for which the “ATPase inhibition” value came to 0.121 nM. B8: the “ATPase inhibition” value worked out at 0.144 nM.

For B9, the “ATPase inhibition” value is 0.147 nM.

In the case of B10, the “ATPase inhibition” value is 0.487 nM. Take B11: the “ATPase inhibition” value was found to be 0.386 nM.

With B12, the “ATPase inhibition” value is 0.32 nM.

For another test, the target named is T2, mouse CD39. The test can be described thus: FACS, CHOK1-mCD39 cells. The source says:
FACS were used to determine binding of the antibodies to cell lines expressing CD39 naturally (SK-MEL-28) or recombinantly (CHOK1-hCD39, CHOK1-cynoCD39, and CHOK1-mCD39), or with cells lacking CD39 expression (CHOK1-blank) as a negative control.
CHOK1-hCD39, CHOK1-cCD39, CHOK1-mCD39 and CHOK1-blank cells were maintained in culture medium according to ATCC procedure. Cells were collected and re-suspended in blocking buffer at a density of 3×10⁶ cells/ml. […] The plates were washed with FACS buffer, and cells were re-suspended in 100 μL/well of PBS. Cells were then analyzed with FACSVerse™ and mean fluorescence intensity were determined. Full binding curves were generated on the CD39 expressing cells by testing a range of antibody concentrations. Apparent affinity was determined for each antibody using Prism software.
(In general: In flow cytometry, cells or beads pass a laser one at a time.)
For the molecule B13, the binding result was “no binding (tested: 30 µg/ml)”.

Turning to B14, the binding result was “no binding (tested: 30 µg/ml)”.

For B15, the binding result is given as “no binding (tested: 30 µg/ml)”. As to B16, the binding result is recorded as “no binding (tested: 30 µg/ml)”. For B17, the binding result is on record as “no binding (tested: 30 µg/ml)”.
